Laboratory results published in the Immune Epitope Database (IEDB).

What was measured:
HLA-A*26:02 [1] = experiment: IEDB peptide-MHC binding, purified MHC/competitive/fluorescence; filed as Kd, often an IC50 or EC50 that approximates it; ≥ and ≤ were set here for values at or beyond the usual limits of such assays
HLA-B*35:01 = experiment: as above; settings: source organism: Influenza A virus H3N2
HLA-A*31:01 [2] = experiment: as above
HLA-A*11:01 [3] = experiment: as above
HLA-B*15:17 [4] = experiment: as above; settings: source organism: Influenza A virus H3N2
HLA-A*68:02 [5] = experiment: as above
HLA-B*57:01 [6] = experiment: as above; settings: source organism: Influenza A virus H3N2
HLA-B*18:01 [7] = experiment: as above
HLA-B*08:02 = experiment: IEDB peptide-MHC binding, purified MHC/direct/fluorescence; filed as Kd, often an IC50 or EC50 that approximates it; ≥ and ≤ were set here for values at or beyond the usual limits of such assays
HLA-B*58:01 [8] = experiment: as above
HLA-B*08:03 = experiment: as above
HLA-B*15:01 [9] = experiment: as above
HLA-B*08:01 = experiment: as above
HLA-B*27:05 = experiment: as above
HLA-A*02:01 [10] = experiment: as above
HLA-A*24:03 = experiment: as above
HLA-A*03:01 = experiment: as above
HLA-B*07:02 = experiment: as above
HLA-B*15:09 = experiment: as above
HLA-A*01:01 = experiment: as above
HLA-B*57:01 [11] = experiment: IEDB peptide-MHC binding, purified MHC/competitive/radioactivity; filed as Kd, often an IC50 or EC50 that approximates it; ≥ and ≤ were set here for values at or beyond the usual limits of such assays
HLA-B*58:01 [12] = experiment: as above
HLA-A*02:06 = experiment: IEDB peptide-MHC binding, purified MHC/competitive/fluorescence; filed as Kd, often an IC50 or EC50 that approximates it; ≥ and ≤ were set here for values at or beyond the usual limits of such assays; settings: source organism: Orthomarburgvirus marburgense
HLA-A*02:01 [13] = experiment: as above; settings: source organism: Orthomarburgvirus marburgense
HLA-A*30:01 [14] = experiment: as above; settings: source organism: Orthomarburgvirus marburgense
HLA-A*26:01 [15] = experiment: as above; settings: source organism: Orthomarburgvirus marburgense
HLA-A*31:01 [16] = experiment: IEDB peptide-MHC binding, purified MHC/direct/fluorescence; filed as Kd, often an IC50 or EC50 that approximates it; ≥ and ≤ were set here for values at or beyond the usual limits of such assays
HLA-B*15:17 [17] = experiment: as above
HLA-B*46:01 = experiment: as above
HLA-A*69:01 = experiment: as above
HLA-A*68:02 [18] = experiment: as above
HLA-A*26:03 = experiment: as above
HLA-B*39:01 = experiment: as above
HLA-B*57:01 [19] = experiment: as above
HLA-B*48:01 = experiment: as above
HLA-B*15:01 [20] = experiment: IEDB peptide-MHC binding, purified MHC/competitive/fluorescence; filed as Kd, often an IC50 or EC50 that approximates it; ≥ and ≤ were set here for values at or beyond the usual limits of such assays; settings: source organism: Variola major virus
HLA-C*14:02 = experiment: IEDB peptide-MHC binding, purified MHC/direct/fluorescence; filed as Kd, often an IC50 or EC50 that approximates it; ≥ and ≤ were set here for values at or beyond the usual limits of such assays; settings: source organism: Variola major virus
HLA-C*15:02 = experiment: as above; settings: source organism: Variola major virus
HLA-A*30:01 [21] = experiment: as above; settings: source organism: Variola virus
HLA-A*26:01 [22] = experiment: as above
HLA-A*26:02 [23] = experiment: as above; settings: source organism: Ravn virus - Ravn, Kenya, 1987
HLA-A*11:01 [24] = experiment: as above; settings: source organism: Marburg virus - Musoke, Kenya, 1980
HLA-B*40:01 = experiment: as above; settings: source organism: Marburg virus - Musoke, Kenya, 1980
HLA-B*18:01 [25] = experiment: as above; settings: source organism: Marburg virus - Musoke, Kenya, 1980
[26] = source organism: Influenza A virus H3N2
[27] = source organism: Influenza A virus(A/swine/Shandong/fNY/2003(H9N2))
[28] = source organism: Influenza A virus (A/Swine/Italy/25823/94(H3N2))
[29] = source organism: Dengue virus 4 Philippines/H241/1956
[30] = source organism: Dengue virus 3 Martinique/1243/1999
[31] = source organism: Orthomarburgvirus marburgense
[32] = source organism: Lake Victoria marburgvirus - Popp
[33] = source organism: Variola major virus
[34] = source organism: Buffalopox virus
[35] = source organism: Marburg virus - Musoke, Kenya, 1980
[36] = source organism: Ravn virus - Ravn, Kenya, 1987

SFSFGGFTF was tested, and the Kd (HLA-A*26:02 [1]; [26]) was 1.84 µM, the Kd (HLA-B*35:01) was 0.285 µM and the Kd (HLA-A*31:01 [2]; [26]) was no less than 20 µM. The Kd (HLA-A*11:01 [3]; [26]) was no less than 20 µM, the Kd (HLA-B*15:17 [4]) was 0.04 µM and the Kd (HLA-A*68:02 [5]; [26]) was 2.44 µM. It also gave a Kd (HLA-B*57:01 [6]) of 2.36 µM, a Kd (HLA-B*18:01 [7]; [26]) of 0.2 µM and a Kd (HLA-B*08:02; [27]) of no less than 20 µM. The Kd (HLA-B*58:01 [8]; [28]) was 0.0625 µM, the Kd (HLA-B*08:03; [27]) was no less than 20 µM and the Kd (HLA-B*15:01 [9]; [28]) was 0.0375 µM. It also gave a Kd (HLA-B*08:01; [27]) of no less than 20 µM, a Kd (HLA-B*27:05; [28]) of no less than 20 µM and a Kd (HLA-A*02:01 [10]; [28]) of no less than 20 µM. It also gave a Kd (HLA-A*24:03; [28]) of no more than 0.001 µM, a Kd (HLA-A*03:01; [28]) of no less than 20 µM and a Kd (HLA-B*07:02; [28]) of no less than 20 µM. It also gave a Kd (HLA-B*15:09; [27]) of no less than 20 µM and a Kd (HLA-A*01:01; [28]) of no less than 20 µM.
Sequence TTRLENIMW has a Kd (HLA-B*57:01 [11]; [29]) of 0.0133 µM.
For KAAVEDEDF, the Kd (HLA-B*58:01 [12]; [30]) was 0.0766 µM.
Sequence FLMRNAIQY has a Kd (HLA-A*26:02 [1]; [31]) of 1.92 µM, a Kd (HLA-A*11:01 [3]; [31]) of 3.87 µM and a Kd (HLA-A*02:06) of 2.27 µM. It also gave a Kd (HLA-A*02:01 [13]) of 0.254 µM, a Kd (HLA-A*30:01 [14]) of 2.77 µM and a Kd (HLA-A*26:01 [15]) of 2.58 µM. It also gave a Kd (HLA-B*08:02; [31]) of no less than 20 µM, a Kd (HLA-B*58:01 [8]; [32]) of no less than 20 µM and a Kd (HLA-B*08:03; [31]) of no less than 20 µM. For the same sequence, the Kd (HLA-A*31:01 [16]; [32]) was no less than 20 µM, the Kd (HLA-B*15:17 [17]; [32]) was 0.157 µM and the Kd (HLA-B*46:01; [32]) was 4.14 µM. For the same sequence, the Kd (HLA-B*15:01 [9]; [32]) was 0.188 µM, the Kd (HLA-B*27:05; [32]) was no less than 20 µM and the Kd (HLA-A*69:01; [32]) was no less than 20 µM. The Kd (HLA-A*68:02 [18]; [32]) was no less than 20 µM, the Kd (HLA-A*26:03; [31]) was no less than 20 µM and the Kd (HLA-B*39:01; [31]) was no less than 20 µM. The Kd (HLA-B*57:01 [19]; [32]) was no less than 20 µM, the Kd (HLA-B*48:01; [32]) was no less than 20 µM and the Kd (HLA-B*07:02; [32]) was no less than 20 µM. It also gave a Kd (HLA-B*15:09; [31]) of no less than 20 µM and a Kd (HLA-A*01:01; [32]) of 0.0372 µM.
Work on LGKAYAQMW yielded a Kd (HLA-B*57:01 [11]; [30]) of 0.207 µM.
In the case of PSVVETLEQM, the Kd (HLA-B*58:01 [12]; source organism: Dengue virus 1 Brazil/97-11/1997) is reported as 0.321 µM.
RYPGVMYAF showed a Kd (HLA-A*26:02 [1]; [33]) of 4.76 µM, a Kd (HLA-A*31:01 [2]; [33]) of 0.122 µM and a Kd (HLA-A*11:01 [3]; [33]) of 4.3 µM. The Kd (HLA-B*15:01 [20]) was 3.62 µM, the Kd (HLA-A*68:02 [5]; [33]) was no less than 20 µM and the Kd (HLA-B*18:01 [7]; [33]) was 0.989 µM. The Kd (HLA-B*58:01 [8]; [34]) was no less than 20 µM, the Kd (HLA-B*08:03; source organism: Variola virus) was no less than 20 µM and the Kd (HLA-C*14:02) was 0.016 µM. The Kd (HLA-C*15:02) was no less than 20 µM, the Kd (HLA-A*69:01; [34]) was no less than 20 µM and the Kd (HLA-A*02:01 [10]; [34]) was no less than 20 µM. The Kd (HLA-A*24:03; [34]) was 0.002 µM, the Kd (HLA-A*26:03; source organism: Variola virus) was no less than 20 µM and the Kd (HLA-B*39:01; source organism: Variola virus) was no less than 20 µM. The Kd (HLA-B*57:01 [19]; [34]) was no less than 20 µM, the Kd (HLA-A*30:01 [21]) was 4 µM and the Kd (HLA-A*26:01 [22]; source organism: Variola virus) was no less than 20 µM. For the same sequence, the Kd (HLA-B*07:02; [34]) was no less than 20 µM, the Kd (HLA-B*15:09; source organism: Variola virus) was no less than 20 µM and the Kd (HLA-A*01:01; [34]) was no less than 20 µM.
For CVFKFIVAK, the Kd (HLA-A*26:02 [23]) was no less than 20 µM, the Kd (HLA-B*58:01 [8]; [35]) was no less than 20 µM and the Kd (HLA-B*08:03; [36]) was no less than 20 µM. For the same sequence, the Kd (HLA-A*31:01 [16]; [35]) was 0.275 µM, the Kd (HLA-A*11:01 [24]) was 0.031 µM and the Kd (HLA-B*15:17 [17]; [35]) was no less than 20 µM. For the same sequence, the Kd (HLA-B*46:01; [35]) was no less than 20 µM, the Kd (HLA-B*15:01 [9]; [35]) was no less than 20 µM and the Kd (HLA-B*08:01; [36]) was no less than 20 µM. For the same sequence, the Kd (HLA-B*27:05; [35]) was no less than 20 µM, the Kd (HLA-A*69:01; [35]) was no less than 20 µM and the Kd (HLA-A*68:02 [18]; [35]) was no less than 20 µM. For the same sequence, the Kd (HLA-A*02:01 [10]; [35]) was no less than 20 µM, the Kd (HLA-B*40:01) was no less than 20 µM and the Kd (HLA-A*26:03; [36]) was no less than 20 µM. It also gave a Kd (HLA-A*03:01; [35]) of 0.391 µM, a Kd (HLA-B*57:01 [19]; [35]) of no less than 20 µM and a Kd (HLA-B*48:01; [35]) of no less than 20 µM. For the same sequence, the Kd (HLA-A*26:01 [22]; [36]) was no less than 20 µM, the Kd (HLA-B*07:02; [35]) was no less than 20 µM and the Kd (HLA-B*18:01 [25]) was no less than 20 µM. It also gave a Kd (HLA-A*01:01; [35]) of no less than 20 µM.
RTSCLQKQSH gave a Kd (HLA-B*57:01 [11]; [29]) of 0.61 µM.
